Laboratory results from paper PMC5430920 (Scientific Reports, 2017).

Target: the molecule itself
Test: SEC

B1: Mycobacterium tuberculosis orotate phosphoribosyltransferase (enzyme)
chain: MAGPDRAELAELVRRLSVVHGRVTLSSGREADYYVDLRRATLHHRASALIGRLMRELTADWDYSVVGGLTLGADPVATAIMHAPGRPIDAFVVRKSAKAHGMQRLIEGSEVTGQRVLVVEDTSTTGNSALTAVHAVQDVGGEVVGVATVVDRATGAAEAIEAEGLRYRSVLGLADLGLD
notes: also called MtOPRT; M. tuberculosis OPRTase
stoichiometry N: 2
